Tests used:
Type in all cases: cell-based
[1] = target: T1, human GLP-1 receptor (hGLP-1r) (Homo sapiens, UniProt P43220); test: BSA-cAMP assay, cells expressing human GLP-1 receptor; details: Batch 1; BSA-cAMP assay; read-out: hGLP1r cAMP activity EC50
T1 construct: expressed in transfected cells
Method: (§1) One basic cAMP assays was performed, differing in the medium used for the assay, the “BSA-cAMP assay”:
(§2) BSA-based assay medium: 0.1% bovine serum albumin (BSA) in
(§3) In certain aspects, the assay can also be carried out in medium supplemented with serum albumin that corresponds to the receptor being tested, e.g., human serum albumin for testing cAMP activity at hGIPr or hGLP-1r, rat serum albumin for testing cAMP activity at rGIPr or rGLP-1r, and so on. […] All sample dilutions were made in duplicate.
(§4) A frozen cryo-vial of cells expressing the receptor of interest was thawed rapidly in a water-bath, transferred to pre-warmed assay media and spun at 240×g for 5 minutes. Cells were re-suspended in assay buffer at an optimized concentration (e.g., hGLP-1r and hGIPr cells at 0.5×10^5 cells/ml).
(§5) To this, 5 μL cell suspension was added and the plates incubated at room temperature for 30 minutes.
(§6) cAMP levels were measured using a commercially available cAMP dynamic 2 HTRF kit (Cisbio, Cat #62AM4PEJ), following the two step protocol as per manufacturer's recommendations. In brief; anti-cAMP cryptate (donor fluorophore) and cAMP-d2 (acceptor fluorophore) were made up separately by diluting each 1/20 in conjugate & lysis buffer provided in the kit. 5 μL anti-cAMP cryptate was added to all wells of the assay plate, and 5 μL cAMP-d2 added to all wells except non-specific binding (NSB) wells, to which conjugate and lysis buffer was added. […] Data was transformed to % Delta F as described in manufacturer's guidelines and then transformed to percent activation of maximal native agonist response and analysed by 4-parameter logistic fit to determine EC50 values.
(§7) We used unconstrained 4 parameter logistic fit of data, curve mid-point to determine EC50. This was tested on two occasions, not two batches.

[2] = target: T2, human GIP receptor (hGIPr) (Homo sapiens, UniProt P48546); test: BSA-cAMP assay, cells expressing human GIP receptor; details: Batch 1; BSA-cAMP assay; read-out: hGIPr cAMP activity EC50
T2 construct: expressed in transfected cells
T2 sequence (P48546 22-466): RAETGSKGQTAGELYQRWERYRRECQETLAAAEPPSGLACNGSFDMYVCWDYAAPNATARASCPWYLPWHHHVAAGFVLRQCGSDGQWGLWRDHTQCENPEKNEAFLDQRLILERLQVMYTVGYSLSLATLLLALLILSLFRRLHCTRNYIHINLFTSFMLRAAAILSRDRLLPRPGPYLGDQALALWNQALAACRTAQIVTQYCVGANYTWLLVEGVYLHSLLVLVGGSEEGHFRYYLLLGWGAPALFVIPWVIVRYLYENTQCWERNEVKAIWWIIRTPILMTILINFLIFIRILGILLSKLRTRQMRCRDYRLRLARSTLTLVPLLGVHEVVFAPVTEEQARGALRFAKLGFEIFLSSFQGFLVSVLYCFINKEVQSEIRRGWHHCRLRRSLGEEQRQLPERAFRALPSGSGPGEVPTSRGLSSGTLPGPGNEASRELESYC
Method: For human GIPr, two different lines were used, shown as “hGIPr” and “hGIPr (C3)” in Table 11.
as §1, §2, §3, §4, §5, §6, §7

[3] = target: T3, human glucagon receptor (GCGr) (Homo sapiens, UniProt P47871); test: BSA-cAMP assay, cells expressing human glucagon receptor; details: Batch 1, read-out: hGCGr cAMP activity EC50
T3 construct: expressed in transfected cells; host or cells: HEK293s or CHO cells
Method: as §1, §2, §3, §4, §5, §6, §7

[4] = target: T4, mouse GLP-1 receptor (mGLP-1r) (Mus musculus, UniProt O35659); test: BSA-cAMP assay, cells expressing mouse GLP-1 receptor; details: Batch 1; BSA-cAMP assay; read-out: mGLP1r cAMP activity EC50
T4 construct: expressed in transfected cells; host or cells: HEK293s or CHO cells
T4 sequence (O35659 22-463): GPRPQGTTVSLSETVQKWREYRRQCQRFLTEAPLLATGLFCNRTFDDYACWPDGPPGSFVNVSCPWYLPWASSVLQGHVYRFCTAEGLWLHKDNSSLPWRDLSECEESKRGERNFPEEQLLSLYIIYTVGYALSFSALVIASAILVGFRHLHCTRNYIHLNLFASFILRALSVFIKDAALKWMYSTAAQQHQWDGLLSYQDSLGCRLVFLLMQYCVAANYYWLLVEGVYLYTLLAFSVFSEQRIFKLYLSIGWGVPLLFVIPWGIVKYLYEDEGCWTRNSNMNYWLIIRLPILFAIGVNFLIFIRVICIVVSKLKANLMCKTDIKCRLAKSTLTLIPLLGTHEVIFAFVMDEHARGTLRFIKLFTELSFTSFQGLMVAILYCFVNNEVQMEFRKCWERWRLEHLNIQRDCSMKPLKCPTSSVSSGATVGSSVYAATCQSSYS
Method: as §1, §2, §3, §4, §5, §6, §7
(§8) In order to be able to carry out in vivo studies in rodents, IP088 was tested for potency against the mouse receptors mGIPr and mGLP-1r as well as the rat receptors rGIPr and rGLP-1r, using cells expressing the respective receptors in the cAMP assay described above.

[5] = target: T5, mouse GIP receptor (mGIPr) (Mus musculus, UniProt Q0P543); test: BSA-cAMP assay, cells expressing mouse GIP receptor; details: Batch 1; BSA-cAMP assay; read-out: mGIPr cAMP activity EC50
T5 construct: expressed in transfected cells; host or cells: HEK293s or CHO cells
T5 sequence (Q0P543 19-460): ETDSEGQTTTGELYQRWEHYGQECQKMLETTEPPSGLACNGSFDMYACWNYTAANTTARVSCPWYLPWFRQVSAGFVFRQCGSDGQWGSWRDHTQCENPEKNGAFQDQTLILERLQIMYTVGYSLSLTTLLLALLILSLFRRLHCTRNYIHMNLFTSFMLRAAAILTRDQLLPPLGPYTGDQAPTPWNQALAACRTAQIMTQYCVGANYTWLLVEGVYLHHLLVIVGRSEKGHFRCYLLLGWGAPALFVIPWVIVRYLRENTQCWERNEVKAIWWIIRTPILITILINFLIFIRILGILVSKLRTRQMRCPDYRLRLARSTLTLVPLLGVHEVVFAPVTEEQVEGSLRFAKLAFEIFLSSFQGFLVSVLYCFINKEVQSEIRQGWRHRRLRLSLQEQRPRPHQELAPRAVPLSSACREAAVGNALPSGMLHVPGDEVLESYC
Method: as §1, §2, §3, §4, §5, §6, §7, §8

[6] = target: T6, rat GLP-1 receptor (rGLP-1r) (Rattus norvegicus, UniProt P32301); test: BSA-cAMP assay, cells expressing rat GLP-1 receptor; details: Batch 1; BSA-cAMP assay; read-out: rGLP1r cAMP activity EC50
T6 construct: expressed in transfected cells; host or cells: HEK293s or CHO cells
T6 sequence (P32301 22-463): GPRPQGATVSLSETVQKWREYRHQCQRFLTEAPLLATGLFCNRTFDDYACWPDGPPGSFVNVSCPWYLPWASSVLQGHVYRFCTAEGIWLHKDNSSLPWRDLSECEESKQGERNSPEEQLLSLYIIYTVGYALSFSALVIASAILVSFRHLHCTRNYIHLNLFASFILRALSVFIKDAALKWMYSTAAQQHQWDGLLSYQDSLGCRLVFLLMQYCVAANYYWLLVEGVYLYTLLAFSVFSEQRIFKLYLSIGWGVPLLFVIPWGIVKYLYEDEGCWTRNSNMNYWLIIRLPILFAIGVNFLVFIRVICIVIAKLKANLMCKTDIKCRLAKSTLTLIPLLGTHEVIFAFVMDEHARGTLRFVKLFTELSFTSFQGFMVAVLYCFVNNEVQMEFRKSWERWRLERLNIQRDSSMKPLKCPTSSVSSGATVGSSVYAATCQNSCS
Method: as §1, §2, §3, §4, §5, §6, §7, §8

rat GIP receptor (rGIPr) = target: T7, rat GIP receptor (rGIPr) (Rattus norvegicus, UniProt P43219); test: BSA-cAMP assay, cells expressing rat GIP receptor; details: Batch 1; BSA-cAMP assay; read-out: rGIPr cAMP activity EC50
T7 construct: expressed in transfected cells; host or cells: HEK293s or CHO cells
T7 sequence (P43219 19-455): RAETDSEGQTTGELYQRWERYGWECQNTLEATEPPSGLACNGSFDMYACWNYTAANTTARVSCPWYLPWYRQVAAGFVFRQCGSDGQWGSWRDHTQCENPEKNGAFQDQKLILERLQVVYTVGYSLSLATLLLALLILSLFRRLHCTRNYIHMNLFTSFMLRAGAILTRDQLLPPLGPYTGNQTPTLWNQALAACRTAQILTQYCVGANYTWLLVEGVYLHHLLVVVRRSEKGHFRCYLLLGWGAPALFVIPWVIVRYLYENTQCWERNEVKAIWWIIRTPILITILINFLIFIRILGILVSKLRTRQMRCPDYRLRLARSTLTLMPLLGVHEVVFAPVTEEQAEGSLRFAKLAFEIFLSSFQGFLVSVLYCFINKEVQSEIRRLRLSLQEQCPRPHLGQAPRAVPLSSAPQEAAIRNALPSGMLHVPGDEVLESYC
Method: as §1, §2, §3, §4, §5, §6, §7, §8

T3 sequence (P47871 26-477): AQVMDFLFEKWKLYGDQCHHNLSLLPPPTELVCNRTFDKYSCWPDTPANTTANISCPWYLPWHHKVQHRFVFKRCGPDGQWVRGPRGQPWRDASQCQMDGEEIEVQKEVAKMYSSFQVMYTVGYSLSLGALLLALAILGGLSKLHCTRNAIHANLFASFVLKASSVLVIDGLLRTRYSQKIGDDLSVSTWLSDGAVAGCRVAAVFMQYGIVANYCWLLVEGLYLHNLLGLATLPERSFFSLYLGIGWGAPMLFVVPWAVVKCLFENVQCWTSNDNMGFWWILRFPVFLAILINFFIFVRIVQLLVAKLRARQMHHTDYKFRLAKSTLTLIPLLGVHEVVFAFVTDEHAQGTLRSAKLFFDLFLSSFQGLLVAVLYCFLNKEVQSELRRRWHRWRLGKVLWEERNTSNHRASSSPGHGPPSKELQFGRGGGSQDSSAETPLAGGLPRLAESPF
T1 sequence (P43220 24-463): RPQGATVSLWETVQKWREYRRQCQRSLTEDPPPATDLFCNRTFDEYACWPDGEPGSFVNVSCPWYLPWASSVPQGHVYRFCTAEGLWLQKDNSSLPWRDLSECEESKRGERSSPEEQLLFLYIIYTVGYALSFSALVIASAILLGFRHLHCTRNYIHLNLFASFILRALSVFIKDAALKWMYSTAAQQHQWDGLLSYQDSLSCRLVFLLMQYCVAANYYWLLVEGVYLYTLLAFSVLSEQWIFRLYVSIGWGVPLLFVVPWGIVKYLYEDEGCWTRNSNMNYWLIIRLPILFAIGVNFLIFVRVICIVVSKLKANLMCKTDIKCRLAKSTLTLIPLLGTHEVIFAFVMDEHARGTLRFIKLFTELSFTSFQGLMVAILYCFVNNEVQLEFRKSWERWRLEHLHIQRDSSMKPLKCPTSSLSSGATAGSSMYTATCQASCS

| Substance | EC50 [1] [nM] | EC50 [2] [nM] | EC50 [3] [nM] | EC50 [4] [nM] | EC50 [5] [nM] | EC50 [6] [nM] | EC50 (rat GIP receptor (rGIPr)) [nM] |
| --- | --- | --- | --- | --- | --- | --- | --- |
| IP305: Fc fusion, IgG1-TM(ΔK), SEQ ID NO:430; agonist peptide YSEGTFISDYSIALAAAAVRDFVNWLLAGG (YSEGTFISDYSIALAAAAVRDFVNWLLAGGGGGGGSGGGGSGGGGSGGGGSATHTCPPC) | 230 | 0.26 | ≥ 1100 | > 1130 | 3.2 | 47 | 1.7 |
| IP308 (YSEGTFISDYSIALAAAAAKDFVNWLLAGGGGGGGSGGGGSGGGGSGGGGSATHTCPPC) | 1300 | 0.025 | ≥ 1500 | > 1520 | 0.17 | 700 | 0.09 |
| IP311 (YSEGTFISDYSIALAAAAIDDFVNWLLAGGGGGGGSGGGGSGGGGSGGGGSATHTCPPC) | 670 | 0.074 | > 2420 | 1500 | 0.95 | 61 | 0.43 |
| IP314: Fc fusion, IgG1-TM(ΔK), SEQ ID NO:431; agonist peptide YSEGTFISDYSKLLAAAAVRDFVNWLLAGG (YSEGTFISDYSKLLAAAAVRDFVNWLLAGGGGGGGSGGGGSGGGGSGGGGSATHTCPPC) | > 906 | 0.23 | 740 | > 906 | 15 | 450 | 0.88 |
| IP318: Fc fusion, IgG1-TM(ΔK), SEQ ID NO:432; agonist peptide YSEGTFISDYSIAMDEEAVRDFVEWLKAGG (YSEGTFISDYSIAMDEEAVRDFVEWLKAGGGGGGGSGGGGSGGGGSGGGGSATHTCPPC) | ≥ 4500 | 0.05 | ≥ 4500 | > 4470 | 35 | > 4470 | 14 |
| IP335 (YSEGTFISDYSIAMDKIHQQDFVNWLLAQKGGGGGSGGGGSGGGGSGGGGSA) | > 5480 | 0.0058 | 280 | > 2740 | 0.02 | > 2740 | 0.0067 |
| IP342 (YSEGTFTSDYSAAAEAAAAAAFAAWLAAAAGGGGGSGGGGSGGGGSGGGGSACPPC) | 75 | 4.7 | > 3560 | 670 | 43 | 23 | 5.1 |
| IP343 (YSEGTFTSDYAAAAERQAIDAFAAWLAAAAGGGGGSGGGGSGGGGSGGGGSA) | 960 | 72 | > 2070 | > 2070 | 880 | 360 | 110 |
| IP359: Fc fusion, IgG1-TM, SEQ ID NO:366; agonist peptide YSEGTFTSDYSKLLEEEAVRLFIEHLLAGG (YSEGTFTSDYSKLLEEEAVRLFIEHLLAGGGGGGSGGGGSGGGGSGGGGSATHTCPPC) | 0.061 | 0.011 | 43 | 0.2 | 8.3 | 0.04 | 0.039 |
| IP368 (YSEGTFTSDYRQAIDRQAIDEFIAWLLKGGGGGGGSGGGGSGGGGSGGGGSACPPC) | 230 | 0.2 | > 4860 | > 4860 | 1.3 | 370 | 0.22 |
| IP380: Fc fusion, IgG1-fusion, SEQ ID NO:376; agonist peptide YSEGTFTSDYSKLLEEEAVRLFIEFLLAGG (YSEGTFTSDYSKLLEEEAVRLFIEFLLAGGGGGGSGGGGSGGGGSGGGGSATHTCPPC) | 0.11 | 0.0084 | 25 | 1.2 | 6.6 | 0.031 | 0.06 |
| IP381: Fc fusion, IgG1-fusion, SEQ ID NO:377; agonist peptide YSEGTFTSDYSKLLEEEAVRLFIEYLLAGG (YSEGTFTSDYSKLLEEEAVRLFIEYLLAGGGGGGSGGGGSGGGGSGGGGSATHTCPPC) | 0.091 | 0.0099 | 18 | 0.73 | 5.4 | 0.027 | 0.045 |
| IP385 (YSEGTFTSDYSIYLDRQAIDEFIAWLLKGGGGGGGSGGGGSGGGGSGGGGSACPPC) | 0.47 | 0.012 | > 1560 | 30 | 18 | 0.16 | 1.1 |
